Patent US20230391826A1 (SANFORD BURNHAM PREBYS MEDICAL DISCOVERY INSTITUTE, published 2023)
Like-named read-outs stand apart in the source and are kept apart here. Where no end group is shown, it is not given here.

Tests used:
[1] = molecular target: the molecule itself; test: quantitative FRET between mTURQ- and EYFP-tagged EphA2 L223R/L254R/V255R in HEK293 cells, no ligand; self-association, monomer-dimer fit
[2] = molecular target: T1, EphA2 endogenously expressed on PC3 prostate cancer cells (UniProt P29317 24-976, limits assumed); test: cell-based or functional assay
T1 sequence (P29317 24-976 limits assumed): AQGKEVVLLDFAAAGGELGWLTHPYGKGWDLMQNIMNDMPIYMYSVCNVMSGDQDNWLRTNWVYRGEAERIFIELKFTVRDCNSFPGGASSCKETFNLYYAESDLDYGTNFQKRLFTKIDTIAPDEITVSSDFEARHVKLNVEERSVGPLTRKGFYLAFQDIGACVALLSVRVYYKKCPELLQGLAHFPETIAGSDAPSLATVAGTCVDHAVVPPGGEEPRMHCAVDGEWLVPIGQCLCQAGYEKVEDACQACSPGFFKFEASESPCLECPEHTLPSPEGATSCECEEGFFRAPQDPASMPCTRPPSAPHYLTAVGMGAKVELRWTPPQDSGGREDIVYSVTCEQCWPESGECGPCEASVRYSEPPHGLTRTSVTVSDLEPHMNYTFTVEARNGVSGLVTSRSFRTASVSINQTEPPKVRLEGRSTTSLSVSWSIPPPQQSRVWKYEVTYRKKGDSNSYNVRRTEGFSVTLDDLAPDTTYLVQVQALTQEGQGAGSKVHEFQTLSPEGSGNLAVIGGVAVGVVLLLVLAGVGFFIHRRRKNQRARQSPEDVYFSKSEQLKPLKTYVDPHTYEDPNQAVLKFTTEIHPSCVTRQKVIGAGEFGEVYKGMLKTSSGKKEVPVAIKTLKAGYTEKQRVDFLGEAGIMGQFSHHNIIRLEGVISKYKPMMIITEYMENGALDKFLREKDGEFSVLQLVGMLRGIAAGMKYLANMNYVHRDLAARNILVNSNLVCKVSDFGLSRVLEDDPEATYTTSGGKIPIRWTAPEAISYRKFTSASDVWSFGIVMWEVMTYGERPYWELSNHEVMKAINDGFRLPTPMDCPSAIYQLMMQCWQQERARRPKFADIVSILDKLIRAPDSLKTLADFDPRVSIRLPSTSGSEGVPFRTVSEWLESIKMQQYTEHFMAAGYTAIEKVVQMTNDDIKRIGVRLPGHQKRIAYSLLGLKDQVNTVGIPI

[3] = molecular target: T1, EphA2 endogenously expressed on PC3 …; test: cell-based or functional assay; remark: listed apart in the source
[4] = molecular target: T2, EphA2 ligand binding domain (EphA2 LBD), residues 28-200 (UniProt P29317 28-200); test: ITC, soluble EphA2 LBD and peptide
T2 construct: range 28-200; Expressed in E. coli; also called soluble EphA2 LBD; soluble monomeric EphA2 LBD
T2 sequence (P29317 other isoform, or with tags, fused parts or gaps limits assumed, form in doubt): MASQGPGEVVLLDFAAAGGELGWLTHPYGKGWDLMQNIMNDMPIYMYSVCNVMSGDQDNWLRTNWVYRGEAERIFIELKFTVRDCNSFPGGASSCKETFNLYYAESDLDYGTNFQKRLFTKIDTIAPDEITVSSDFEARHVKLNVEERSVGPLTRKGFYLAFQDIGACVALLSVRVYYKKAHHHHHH

[5] = molecular target: T2, EphA2 ligand binding domain (EphA2 …); test: ITC, soluble EphA2 LBD and peptide; remark: listed apart in the source
Description: (§1) For ITC, all peptides are dissolved in DMSO and both the EphA2 LBD and the peptides are diluted to obtain a final buffer containing 9.5 mM HEPES, pH 7.9, 95 mM NaCl, and 5% DMSO. The experiments are carried out at 296 K (23° C.) using an ITC200 calorimeter (Microcal). Two-microliter aliquots of a peptide solution are injected into the cell containing 205 μL EphA2 LBD. 200-400 μM peptides are titrated into 20-40 μM EphA2 LBD. Experimental data are analyzed using the Origin software package (Microcal). The integrated values for the reaction heats are normalized to the amount of injected peptide after blank subtraction.

[6] = molecular target: T2, EphA2 ligand binding domain (EphA2 …); test: ITC, soluble EphA2 LBD and peptide; remark: listed apart in the source
Description: as §1

[7] = molecular target: T3, EphA2 extracellular domain fused to the Fc portion of an antibody (EphA2-Fc); test: ELISA, inhibition of ephrinA5-AP binding to immobilized EphA2-Fc
T3 construct: extracellular domain; Immobilized on the ELISA wells; also called immobilized EphA2
T3 sequence (P29317 whole entry, the tested form may be a part): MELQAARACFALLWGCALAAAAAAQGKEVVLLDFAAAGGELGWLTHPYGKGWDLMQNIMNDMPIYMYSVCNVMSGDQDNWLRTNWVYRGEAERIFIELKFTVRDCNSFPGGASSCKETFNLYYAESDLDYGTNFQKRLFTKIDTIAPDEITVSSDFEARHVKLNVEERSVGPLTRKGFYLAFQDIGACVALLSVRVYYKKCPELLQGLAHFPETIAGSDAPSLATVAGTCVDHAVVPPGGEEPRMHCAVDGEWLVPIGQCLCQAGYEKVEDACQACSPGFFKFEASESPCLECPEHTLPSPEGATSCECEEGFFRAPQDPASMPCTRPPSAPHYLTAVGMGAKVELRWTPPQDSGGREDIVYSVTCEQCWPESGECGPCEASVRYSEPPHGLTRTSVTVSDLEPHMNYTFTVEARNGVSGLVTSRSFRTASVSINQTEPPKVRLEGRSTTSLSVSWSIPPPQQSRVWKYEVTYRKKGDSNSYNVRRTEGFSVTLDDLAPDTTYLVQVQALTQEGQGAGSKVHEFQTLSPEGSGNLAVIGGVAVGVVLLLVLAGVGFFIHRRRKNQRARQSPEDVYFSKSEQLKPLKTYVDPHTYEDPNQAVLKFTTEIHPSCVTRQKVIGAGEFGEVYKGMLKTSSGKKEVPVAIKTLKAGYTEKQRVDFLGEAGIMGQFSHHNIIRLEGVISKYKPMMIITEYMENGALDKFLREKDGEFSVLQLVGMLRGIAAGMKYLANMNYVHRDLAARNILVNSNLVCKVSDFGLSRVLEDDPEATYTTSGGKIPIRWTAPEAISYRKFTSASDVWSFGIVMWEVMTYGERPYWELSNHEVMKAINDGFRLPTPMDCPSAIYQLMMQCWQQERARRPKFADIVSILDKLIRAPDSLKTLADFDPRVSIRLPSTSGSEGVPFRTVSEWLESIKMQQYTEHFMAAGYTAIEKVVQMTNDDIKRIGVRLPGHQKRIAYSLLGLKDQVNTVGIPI

[8] = molecular target: T3, EphA2 extracellular domain fused to the …; test: as above; remark: listed apart in the source
[9] = molecular target: T2, EphA2 ligand binding domain (EphA2 …); test: ITC, EphA2 LBD (200-250 µM) titrated into 10-12.5 µM peptide; single titration shown
[10] = molecular target: T3, EphA2 extracellular domain fused to the …; test: ELISA, inhibition of ephrinA5-AP binding to immobilized EphA2-Fc; representative experiment, triplicates

B1: L223R/L254R/V255R (receptor)
chain: AQGKEVVLLDFAAAGGELGWLTHPYGKGWDLMQNIMNDMPIYMYSVCNVMSGDQDNWLRTNWVYRGEAERIFIELKFTVRDCNSFPGGASSCKETFNLYYAESDLDYGTNFQKRLFTKIDTIAPDEITVSSDFEARHVKLNVEERSVGPLTRKGFYLAFQDIGACVALLSVRVYYKKCPELLQGLAHFPETIAGSDAPSRATVAGTCVDHAVVPPGGEEPRMHCAVDGEWRRPIGQCLCQAGYEKVEDACQACSPGFFKFEASESPCLECPEHTLPSPEGATSCECEEGFFRAPQDPASMPCTRPPSAPHYLTAVGMGAKVELRWTPPQDSGGREDIVYSVTCEQCWPESGECGPCEASVRYSEPPHGLTRTSVTVSDLEPHMNYTFTVEARNGVSGLVTSRSFRTASVSINQTEPPKVRLEGRSTTSLSVSWSIPPPQQSRVWKYEVTYRKKGDSNSYNVRRTEGFSVTLDDLAPDTTYLVQVQALTQEGQGAGSKVHEFQTLSPEGSGNLAVIGGVAVGVVLLLVLAGVGFFIHRRRKNQRARQSPEDVYFSKSEQLKPLKTYVDPHTYEDPNQAVLKFTTEIHPSCVTRQKVIGAGEFGEVYKGMLKTSSGKKEVPVAIKTLKAGYTEKQRVDFLGEAGIMGQFSHHNIIRLEGVISKYKPMMIITEYMENGALDKFLREKDGEFSVLQLVGMLRGIAAGMKYLANMNYVHRDLAARNILVNSNLVCKVSDFGLSRVLEDDPEATYTTSGGKIPIRWTAPEAISYRKFTSASDVWSFGIVMWEVMTYGERPYWELSNHEVMKAINDGFRLPTPMDCPSAIYQLMMQCWQQERARRPKFADIVSILDKLIRAPDSLKTLADFDPRVSIRLPSTSGSEGVPFRTVSEWLESIKMQQYTEHFMAAGYTAIEKVVQMTNDDIKRIGVRLPGHQKRIAYSLLGLKDQVNTVGIPI
modifications: Carries mTURQ (donor) or EYFP (acceptor) at the C-terminus. The tag is not in the letters.
notes: mutant of m18 used in the FRET experiments; also called EphA2 L223R/L254R/V255R; clustering interface mutant; not shown: C-terminal fluorescent protein (mTURQ or EYFP) and any linker to it
[1]
  binding result: binds

B2: CGA-WLA-YRPK dimer (N-ter) (peptide)
peptide: CGAWLAYPDSVPYRPK
modifications: also: N-terminally disulfide-linked homodimer, disulfide at 1, other end not in the chain
notes: also called dimer (5); dimeric peptide (5)
[2]
  Blig (bias factor): 0.81
  EC50 PY588: 0.53 nM
  Emax PY588: 0.78 normalized to ephrinA1-Fc
  IC50 PAKT: 0.068 nM
[3]
  EC50 pAKT inhib: 0.09 nM
  Etop pAKT inhib: 1
  Etop pY588: 0.87 normalized to ephrinA1-Fc
  βlig (bias factor): 0.66
[4]
  Kd: 380 nM
  N (binding stoichiometry): 2.2
[5]
  Kd: 21 nM
  N (binding stoichiometry): 2.2
[6]
  -TΔS: 21.9 kcal/mol
  Kd: 21 nM
  N (binding stoichiometry): 2.2
  ΔG: -10.4 kcal/mol
  ΔH: -32.3 kcal/mol
[7]
  IC50: 0.65 nM
[8]
  IC50: 0.66 nM
[9]
  Kd: 18 nM
[10]
  IC50: 0.79 nM
